Experiments:
[1] = Recovery of ATRA and conjugate in plasma and lung tissue after intratracheal instillation in male rats; format: in vivo, Sprague Dawley Rats
Experimental: The following study in rats was conducted to determine plasma and lung tissue concentrations of non-PEGylated all-trans retinoic acid (ATRA control) versus a PEGylated all-trans retinoic acid, mPEG (5 kD)ATRA Ester Conjugate, after intratracheal instillation to male rats.
Animals: Hilltop Lab Animals Inc (P.O. Box 183, Scottdale, Pa. 15683) supplied pre-cannulated jugular vein catheter [JVC]) Sprague Dawley Rats (350-375 grams). The test system included 2 male rats randomly chosen for each of the 6 test groups.
ATRA and PEG-ATRA Samples: Non-PEGylated All-Trans Retinoic Acid was supplied as a powder containing 50% ATRA by weight (Control Article). The powder was stored at −20° C. and protected from light. Methoxy PEG (5 kD) ATRA ester conjugate (Test Article) was provided as a powder containing 5% ATRA by weight which was stored at −20° C. and protected from light.
ATRA Stock Solution/Control (2.0 mg/ml Stock): 3.0 mL of PBS was added to 6.0 mg of the ATRA powder. This solution was dosed as a suspension to the rats after sonication and vortexing.
Methoxy PEG (5 kD) ATRA ester conjugate (20.0 mg/mL Stock): 3.0 mL of PBS was added to 60.0 mg of the methoxy PEG (5 kD) ATRA ester conjugate powder.
Intratracheal Instillation: Administration of the control and test articles was achieved by intratracheal instillation under yellow lighting. The rats were lightly anesthetized using inhaled 3.0-5.0% isoflurane mixed with oxygen in a plexiglass anesthesia chamber. The dose was administered by inserting a gavage needle fitted with a 1 mL syringe into the mouth of the rat down the trachea to just above the carina. The dose was administered into the lungs utilizing this method, and then the gavage needle was removed. The animal was placed back in its cage and allowed to recover from the anesthesia on its own after the dosing procedure.
Rats were dosed IT with 354 μg (1.2 μmole) of RA or […] (1 μmole) ATRA equivalent of mPEG5K-ATRA.
Blood Collection: Predose blood samples of approximately 3.0 ml were collected from the jugular vein catheter into heparinized plasma tubes. At the designated sacrifice time for each animal a surgical plane of anesthesia was induced by using inhaled 3.0-5.0% isofluorane mixed with oxygen. […]
ATRA and PEG-ATRA were extracted from whole rat lung by first weighing and transferring the rat lung to an amber vial and cutting the lung into small pieces. […] The sample was then analyzed by HPLC.
Sample Analysis: Plasma and lung tissue samples were analyzed for all-trans retinoic acid concentrations by reverse-phase high performance liquid chromatography (HPLC) procedures for the lung tissue and by a liquid chromatography tandem mass spectrophotometer (LC-MS-MS) technique for the plasma samples. […]

[2] = Hydrolysis rate of PEG-ATRA ester conjugate in phosphate buffer; format: physicochemical; conditions: phosphate buffer 0.1M, pH 7.0, 0.5 wt %, pseudo-first-order kinetics
Experimental: The rate of hydrolysis in buffer of an exemplary PEG-ATRA conjugate in accordance with the invention was determined at two different temperatures, room temperature and body temperature.
MPEG 5 kDa ATRA (see Example 1) was dissolved in phosphate buffer (0.1M, pH 7.0) at a concentration of 0.5 wt % at temperatures of 23° C. and 37° C. At timed intervals, aliquots were removed for analysis by analytical reverse phase HPLC. The hydrolysis half-lives were obtained using pseudo-first-order kinetics. […] Thus, these conjugates can be characterized as water-soluble prodrugs forms of the retinoid.

[3] = Stability (degradation) of PEG-retinoid compositions versus unmodified parent retinoid; format: physicochemical; conditions: without free radical scavenger
Source text: Additionally, a composition in accordance with the invention will preferably contain a free radical scavenger such as butylatedhydroxytoluene (BHT), ascorbic acid (vitamin C), or alpha tocopherol […]. […] Incorporation of a free radical scavenger in the composition was effective to substantially reduce or effectively eliminate free-radical induced degradation of the conjugate.

| Molecule | concentration at 1 h ([1]; male, Sprague Dawley, other: intratracheal instillation, 354 μg, rat plasma, one-hour timepoint, LC-MS-MS, read-out: plasma retinoic acid (ATRA) concentration) | retention in the lung compared with pegylated / unmodified counterpart ([1]; rat, lung tissue (FIG. 3)) | half-life (t 1/2) of the hydrolysis ([2]; 23° C.) | half-life (t 1/2) of the hydrolysis ([2]; 37° C.) | plasma retinoic acid (ATRA) concentration ([1]; rat plasma, one-hour timepoint, LC-MS-MS) | retained in the lung ([1]; rat, for at least up to 2 hours post administration, HPLC of lung tissue) | stability of the composition relative to compositions of the unmodified parent retinoid [3] |
| --- | --- | --- | --- | --- | --- | --- | --- |
| CC1=C(/C=C/C(C)=C/C=C/C(C)=C/C(=O)O)C(C)(C)CCC1 [ATRA, all trans retinoic acid, reference compound] | ~145 ng/mL | to a lesser degree |  |  |  |  |  |
| mPEG (5 kDa) ATRA Ester Conjugate [Example 1] |  |  | about 3500 hours | about 877 hours | approximately 65 ng/ml | greater than 70 % of the dose | more prone to degradation |
